Data published in the RNAGym collection of RNA variant scans (doi:10.7554/elife.90254).

B1: LINE1-full (parent)
chain: UACGUAGGUGGUUUUCCCCUGAUAGUGCUAAGGGGGCCUGGAAGUUUGGACUGGGCAGAGCUCAACACAGCGUGGCAAAGUGGCUGUGGCUAGACUGCCUCUCUGGAUUCCUCGUCACUCAGCAGGGCAUCUCUGAGAGAAAUGCC

Variants of: B1
Assay: self-cleavage, relative activity (ratio to wild type); higher = more cleavage; in vitro, sequencing; the parent is a self-cleaving ribozyme

Compared with UACGUAGGUGGUUUUCCCCUGAUAGUGCUAAGGGGGCCUGGAAAUUUGGACUGGGCAGAGCUCUACACAGCGUGGCAAAGUGGCUGUGGCUAGACUGCCUCUCUGGAUUCCUCGUCACUCAGCAGGGCAUCUCUGAGAGAAAUGCC [G44A A64U], UACGUAGGUGGUUUUCCCCUGAUAGUGCUAAGGGGGCCUGGAAUUUUGGACUGGGCAGAGCUCAACACAGCGUGGCAAAGUGGCUGUGGCUAGACUGCCUCUCUGGAUCCCUCGUCACUCAGCAGGGCAUCUCUGAGAGAAAUGCC [G44U U109C] is higher in self-cleavage: 0.4 for the first, 1.31 for the second.

First: UACGUAGGUGGUUUUCCCCUGAUAGUGCUAAGGGGGCCUGGAAUUUUGGACUGGGCAGAGCUCAACACAGCGUGGCAAAGUGGCUGUGGCUAGACGGCCUCUCUGGAUUCCUCGUCACUCAGCAGGGCAUCUCUGAGAGAAAUGCC [G44U U96G]
Second: UACGUAGGUGGUUUUCCCCUGAUAGUGCUAAGGGGGCCUGGAAUUUUGGACUGGGCAGAGCUCGACACAGCGUGGCAAAGUGGCUGUGGCUAGACUGCCUCUCUGGAUUCCUCGUCACUCAGCAGGGCAUCUCUGAGAGAAAUGCC [G44U A64G]
The self-cleavage of the first is lower: 0.06 for the first, 0.12 for the second.

Going from UACGUAGGUGGUUUUCCCCUGAUAGUGCUAAGGGGGCCUGGAAAUUUGGACUGGGCAGAGCUCAACACAGCGUGGCAAAGUGGCUGUGGCUAGACUGCCUCUCUGGAUUCCUCGUCACUCAGCAGGGCAUCUCUGAGAGAGAUGCC [G44A A141G] to UACGUAGGUGGUUUUCCCCUGAUAGUGCUAAGGGGGCCUGGAAAUUUGGACUGGGCAGAGCUCAACACAGCGUGGCAAAGUGGCUGUGGCUAGACUGCCUCUCUGGAUUCCUCGUCACUCAGCAGGGCAUCUCUGAGAGAAACGCC [G44A U143C], the self-cleavage rises from 1.42 to 1.48.

Going from UACGUAGGUGGUUUUCCCCUGAUAGUGCUAAGGGGGCCUGGAAUUUUGGACUGGGCAGAGCUCAACACAGCGUGGCAAAGUGGCUGUGGCUAGACUGCCUCUCUGGAUUCCUCGUCACUCAGCAGGGCAUCUCUGAGAGAAGUGCC [G44U A142G] to UACGUAGGUGGUUUUCCCCUGAUAGUGCUAAGGGGGCCUGGAAGAUUGGACUGGGCAGAGCUCAACACAGCGUGGCAAAGUGGCUGUGGCUAGUCUGCCUCUCUGGAUUCCUCGUCACUCAGCAGGGCAUCUCUGAGAGAAAUGCC [U45A A94U], the self-cleavage falls from 1.68 to 0.2.

Going from UACGUAGGUGGUUUUCCCCUGAUAGUGCUAAGGGGGCCUGGAAGAUUGGACUGGGCAGAGCUCAACACAGCGUGGCAAAGUGGCUGUGGCUAGGCUGCCUCUCUGGAUUCCUCGUCACUCAGCAGGGCAUCUCUGAGAGAAAUGCC [U45A A94G] to UACGUAGGUGGUUUUCCCCUGAUAGUGCUAAGGGGGCCUGGAAAUUUGGACUGGGCAGAGCUCAACACAGCGUGGCAAAGUGGCUGUGGCUAGACUGCCUCUCUGGAUUCCUCGUCACUCAGCAGGGCAUCCCUGAGAGAAAUGCC [G44A U132C], the self-cleavage rises from 0.05 to 1.31.

First: UACGUAGGUGGUUUUCCCCUGAUAGUGCUAAGGGGGCCUGGAAAUUUGGACUGGGCAGAGCUCAACACAGCGUGGCAAAGUGGCUGUGGCUAGACUGCCUCUCUGGAUCCCUCGUCACUCAGCAGGGCAUCUCUGAGAGAAAUGCC [G44A U109C]
Second: UACGUAGGUGGUUUUCCCCUGAUAGUGCUAAGGGGGCCUGGAAAUUUGGACUGGGCAGAGCUCAACACAGCGUGGCAAAGUGGCUGUGGCUAGACUGCCUCUCUGGAUUCCUUGUCACUCAGCAGGGCAUCUCUGAGAGAAAUGCC [G44A C113U]
The self-cleavage of the first is lower: 1.09 for the first, 1.8 for the second.

Compared with UACGUAGGUGGUUUUCCCCUGAUAGUGCUAAGGGGGCCUGGAAUUUUGGACUGGGCAGAGCUCAACACAGCGUGGCAAAGUGGCUGUGGCUAGACUGCCUCUCUGGGUUCCUCGUCACUCAGCAGGGCAUCUCUGAGAGAAAUGCC [G44U A107G], UACGUAGGUGGUUUUCCCCUGAUAGUGCUAAGGGGGCCUGGAAGAUUGGACUGGGCAGAGCUCAACACAGCGUGGCAUAGUGGCUGUGGCUAGACUGCCUCUCUGGAUUCCUCGUCACUCAGCAGGGCAUCUCUGAGAGAAAUGCC [U45A A78U] is higher in self-cleavage: 1.7 for the first, 1.99 for the second.

First: UACGUAGGUGGUUUUCCCCUGAUAGUGCUAAGGGGGCCUGGAAAUUUGGACUGGGCAGAGCUCAACACAGCGUGGCAAAGUGGCUGUGUCUAGACUGCCUCUCUGGAUUCCUCGUCACUCAGCAGGGCAUCUCUGAGAGAAAUGCC [G44A G89U]
Second: UACGUAGGUGGUUUUCCCCUGAUAGUGCUAAGGGGGCCUGGAAAUUUGGACUGGGCAGAGCUCAACACAGCGUGGCAAAGUGGCUGUGCCUAGACUGCCUCUCUGGAUUCCUCGUCACUCAGCAGGGCAUCUCUGAGAGAAAUGCC [G44A G89C]
The self-cleavage of the first is lower: 0.02 for the first, 0.04 for the second.

First: UACGUAGGUGGUUUUCCCCUGAUAGUGCUAAGGGGGCCUGGAACUUUGGACUGGGCAGAGCUCAACACAGCGUGGCAAAGUGGCUGUGGCUAGACUGCCUCUCUGGAUUCCUCGUCACUCAGCAGGGCAUCUCUGAGAGAGAUGCC [G44C A141G]
Second: UACGUAGGUGGUUUUCCCCUGAUAGUGCUAAGGGGGCCUGGAAGAUUGGACUGGGCAGAGCUCAACACAGCGUGGCGAAGUGGCUGUGGCUAGACUGCCUCUCUGGAUUCCUCGUCACUCAGCAGGGCAUCUCUGAGAGAAAUGCC [U45A A77G]
The self-cleavage of the first is lower: 1.03 for the first, 1.56 for the second.

First: UACGUAGGUGGUUUUCCCCUGAUAGUGCUAAGGGGGCCUGGAAGAUUGGACUGGGCAGAGCUCAACACAGCGUGGCAAAGUGGCUGUGGCUAGACUGCCUCUCUGGGUUCCUCGUCACUCAGCAGGGCAUCUCUGAGAGAAAUGCC [U45A A107G]
Second: UACGUAGGUGGUUUUCCCCUGAUAGUGCUAAGGGGGCCUGGAAUUUUGGACUGGGCAGAGCUCAACACAGCGUGGCAAAGUGGCUGUGGCUAGACUGCCUCUCUGGAUUCCUCGUCACUCAGCAGGGCAUCUCUGAGAGAAAUGCC [G44U]
The self-cleavage of the first is lower: 1.44 for the first, 1.56 for the second.

First: UACGUAGGUGGUUUUCCCCUGAUAGUGCUAAGGGGGCCUGGAACUUUGGACUGGGCAGAGCUCAACACAGCGUGGCAAAGUGGCUGUGGCUAGACUGCCUCUCUGGAUUCCUCGUCACUCAGCAGGGCAUCUCUGAGAGAAAUGCC [G44C]
Second: UACGUAGGUGGUUUUCCCCUGAUAGUGCUAAGGGGGCCUGGAAGAUUGGACUGGGCUGAGCUCAACACAGCGUGGCAAAGUGGCUGUGGCUAGACUGCCUCUCUGGAUUCCUCGUCACUCAGCAGGGCAUCUCUGAGAGAAAUGCC [U45A A57U]
The self-cleavage of the first is higher: 1.22 for the first, 0.08 for the second.

Going from UACGUAGGUGGUUUUCCCCUGAUAGUGCUAAGGGGGCCUGGAAGAUUGGACUGGGCGGAGCUCAACACAGCGUGGCAAAGUGGCUGUGGCUAGACUGCCUCUCUGGAUUCCUCGUCACUCAGCAGGGCAUCUCUGAGAGAAAUGCC [U45A A57G] to UACGUAGGUGGUUUUCCCCUGAUAGUGCUAAGGGGGCCUGGAAAUUUGGACUGGGCAGAGCCCAACACAGCGUGGCAAAGUGGCUGUGGCUAGACUGCCUCUCUGGAUUCCUCGUCACUCAGCAGGGCAUCUCUGAGAGAAAUGCC [G44A U62C], the self-cleavage falls from 1.01 to 0.02.

Going from UACGUAGGUGGUUUUCCCCUGAUAGUGCUAAGGGGGCCUGGAAAUUUGGACUGGGCAGAGCUCAACACAGCGUGGCAAAGUGGCUGUGGGUAGACUGCCUCUCUGGAUUCCUCGUCACUCAGCAGGGCAUCUCUGAGAGAAAUGCC [G44A C90G] to UACGUAGGUGGUUUUCCCCUGAUAGUGCUAAGGGGGCCUGGAAAUUUGGACUGGGCAGAGCUCAACACAGCGUGGCAAGGUGGCUGUGGCUAGACUGCCUCUCUGGAUUCCUCGUCACUCAGCAGGGCAUCUCUGAGAGAAAUGCC [G44A A79G], the self-cleavage rises from 0.01 to 0.99.

First: UACGUAGGUGGUUUUCCCCUGAUAGUGCUAAGGGGGCCUGGAAAUUUGGACUGGGCAGAGCUCAACACAGCGUGGCAAUGUGGCUGUGGCUAGACUGCCUCUCUGGAUUCCUCGUCACUCAGCAGGGCAUCUCUGAGAGAAAUGCC [G44A A79U]
Second: UACGUAGGUGGUUUUCCCCUGAUAGUGCUAAGGGGGCCUGGAAAUUUGGACUGGGCAGAGCUCAACACAGCGUGGCAAAGUGGCUGUGGCUAGACUGCCUCUCUGGAUUCCUCGUCACUCGGCAGGGCAUCUCUGAGAGAAAUGCC [G44A A121G]
The self-cleavage of the first is higher: 1.89 for the first, 1.21 for the second.

Compared with UACGUAGGUGGUUUUCCCCUGAUAGUGCUAAGGGGGCCUGGAAGAUUGGACUGGGCAGAGCUCAACACAGCGUGGCAAAGUGGCUGUGGCUAGACUGCCUCUCUGGAUUCCUCGUCACUCAGCAGGGCAUCUCUGAGAGAAAUGCC [U45A], UACGUAGGUGGUUUUCCCCUGAUAGUGCUAAGGGGGCCUGGAAGAUUGGACUGGGCAGAGCUCAACGCAGCGUGGCAAAGUGGCUGUGGCUAGACUGCCUCUCUGGAUUCCUCGUCACUCAGCAGGGCAUCUCUGAGAGAAAUGCC [U45A A67G] is lower in self-cleavage: 1.21 for the first, 0.37 for the second.

First: UACGUAGGUGGUUUUCCCCUGAUAGUGCUAAGGGGGCCUGGAACUUUGGACUGGGCAGAGCUCAACACAGCGUGGCAAAGUGGCUGUGGCUAGACUGCCUCUCUGGAUUCCUCGACACUCAGCAGGGCAUCUCUGAGAGAAAUGCC [G44C U115A]
Second: UACGUAGGUGGUUUUCCCCUGAUAGUGCUAAGGGGGCCUGGAAAUAUGGACUGGGCAGAGCUCAACACAGCGUGGCAAAGUGGCUGUGGCUAGACUGCCUCUCUGGAUUCCUCGUCACUCAGCAGGGCAUCUCUGAGAGAAAUGCC [G44A U46A]
The self-cleavage of the first is higher: 1.77 for the first, 0.79 for the second.

First: UACGUAGGUGGUUUUCCCCUGAUAGUGCUAAGGGGGCCUGGAAAUUUGGACUGGGCAGAGCUCAACACAGCGUGGCAAAGUGGCUGUGGCUAGACUGCCUCUCUGGAUUCCUCGUCACUCAGCAGGGCAUCUCUGAGGGAAAUGCC [G44A A138G]
Second: UACGUAGGUGGUUUUCCCCUGAUAGUGCUAAGGGGGCCUGGAAGAUUGGACUGGGCAGAGCUCUACACAGCGUGGCAAAGUGGCUGUGGCUAGACUGCCUCUCUGGAUUCCUCGUCACUCAGCAGGGCAUCUCUGAGAGAAAUGCC [U45A A64U]
The self-cleavage of the first is higher: 1.55 for the first, 0.37 for the second.

Compared with UACGUAGGUGGUUUUCCCCUGAUAGUGCUAAGGGGGCCUGGAAAUUUGGACCGGGCAGAGCUCAACACAGCGUGGCAAAGUGGCUGUGGCUAGACUGCCUCUCUGGAUUCCUCGUCACUCAGCAGGGCAUCUCUGAGAGAAAUGCC [G44A U52C], UACGUAGGUGGUUUUCCCCUGAUAGUGCUAAGGGGGCCUGGAAAUUUGGACUGGGCAGAGCUCAACACAGCGUGGCAAAGUGGCUGUGGCUAGACUGCCUCUCUGGAUUCCUCGUCACUCAGCAGGGCAUCUCCGAGAGAAAUGCC [G44A U134C] is lower in self-cleavage: 1.32 for the first, 0.92 for the second.

Compared with UACGUAGGUGGUUUUCCCCUGAUAGUGCUAAGGGGGCCUGGAAAUUUGGACUGGGCAGAGCUCAACACAGCGCGGCAAAGUGGCUGUGGCUAGACUGCCUCUCUGGAUUCCUCGUCACUCAGCAGGGCAUCUCUGAGAGAAAUGCC [G44A U73C], UACGUAGGUGGUUUUCCCCUGAUAGUGCUAAGGGGGCCUGGAAUUUUGGACUGGGCAGAGCUCAACACGGCGUGGCAAAGUGGCUGUGGCUAGACUGCCUCUCUGGAUUCCUCGUCACUCAGCAGGGCAUCUCUGAGAGAAAUGCC [G44U A69G] is lower in self-cleavage: 1.68 for the first, 0.66 for the second.

With UACGUAGGUGGUUUUCCCCUGAUAGUGCUAAGGGGGCCUGGAAUUUCGGACUGGGCAGAGCUCAACACAGCGUGGCAAAGUGGCUGUGGCUAGACUGCCUCUCUGGAUUCCUCGUCACUCAGCAGGGCAUCUCUGAGAGAAAUGCC [G44U U47C] the self-cleavage was 1.45.
